# Laboratory results reported in US20260207704A1, “STAPLED PEPTIDES AND METHODS THEREOF” (priority 2022, published 2026).
# *1 amine or outer side, *2 acyl side, *3 side chain or, on linkers, in order; H or OH if unused. Bridges are numbered along the chain shown (N, C = ends). Primed or numbered codes have the meaning given here. [ ]: non-standard residue; d: D form. B5(4) = 2-amino-2-(pent-4-en-1-yl)hept-6-enoic acid, stapled through each of its two olefin groups with other olefin-containing amino acid residues, O=C(C(CCCC=[*:3])(CCCC=[*:4])N[*:1])[*:2]; PyrS2″ = (S)-3-amino-1-((pent-4-en-1-yloxy)carbonyl)pyrrolidine-3-carboxylic acid (olefin stapling residue), C=CCCCOC(=O)N1CC[C@@](N[*:1])(C(=O)[*:2])C1; PyrS2(3) = (S)-3-amino-1-((pent-4-en-1-yloxy)carbonyl)pyrrolidine-3-carboxylic acid, olefin residue, C=CCCCOC(=O)N1CC[C@@](N[*:1])(C(=O)[*:2])C1; PyrS2(5) = (S)-3-amino-1-((pent-4-en-1-yloxy)carbonyl)pyrrolidine-3-carboxylic acid, C=CCCCOC(=O)N1CC[C@@](N[*:1])(C(=O)[*:2])C1; B5″ = 2-amino-2-(pent-4-en-1-yl)hept-6-enoic acid (bis-olefin stapling residue), C=CCCCC(CCCC=C)(N[*:1])C(=O)[*:2]; B5(3) = 2-amino-2-(pent-4-en-1-yl)hept-6-enoic acid, two olefin arms, C=CCCCC(CCCC=C)(N[*:1])C(=O)[*:2]; 2F3MeF(3) = aromatic amino acid residue, Cc1cccc(C[C@H](N[*:1])C(=O)[*:2])c1F; 2F3MeF″ = aromatic residue, Cc1cccc(C[C@H](N[*:1])C(=O)[*:2])c1F; Phe(3-COOH) = N[C@@H](Cc1cccc(C(=O)O)c1)C(=O)O; 2F3MeF = Cc1cccc(C[C@H](N[*:1])C(=O)[*:2])c1F; Bta = N[C@@H](Cc1csc2ccccc12)C(=O)O; αAllylPro = C=CC[C@@]1(C(=O)O)CCCN1; BztA = aromatic amino acid residue; tBuAla = CC(C)(C)C[C@H](N)C(=O)O; 3Thi = N[C@@H](Cc1ccsc1)C(=O)O; Cha = N[C@@H](CC1CCCCC1)C(=O)O; PyrS2(4) = not defined here; Nle = CCCC[C@H](N)C(=O)O; TfeGA = not defined here; GlnR = not defined here; PL3 = not defined here; B5 = not defined here; Aib = CC(C)(N)C(=O)O
# B1: I-121 (peptide)
# peptide: Ac-[αAllylPro]D[tBuAla][B5(4)]D[TfeGA][Aib]AFK[PyrS2(5)][2F3MeF][Bta][GlnR]A-NH2
# modifications: bridge 10-14; not fully specified (bridges); reading uncertain; also: Lys*3 and GlnR*3 marked *3
# B2: I-104 (peptide)
# peptide: Ac-[PL3]D[tBuAla][B5]D[Phe(3-COOH)]AAFK[PyrS2(4)][2F3MeF][Bta][GlnR]L-NH2
# modifications: staple 1-4; bridge 10-14; not fully specified (residue 10); printed as Ac-PL3-Asp-Npg-B5-Asp-3COOHF-Ala-Ala-Phe-Lys*3-PyrS2-2F3MeF-BztA-GlnR*3-Leu-NH2; reading uncertain; also: PyrS2 tied into a staple, partner not placed
# B3: I-97 (peptide)
# peptide: Ac-[PL3]D[Cha][B5]D[Phe(3-COOH)]AAFK[PyrS2″][2F3MeF(3)][BztA][GlnR]A-NH2
# modifications: staple 1-4 (inferred); bridge 10-14; not fully specified (residue 10, bridges); printed as Ac-PL3-Asp-Cha-B5-Asp-3COOHF-Ala-Ala-Phe-Lys*3-PyrS2-2F3MeF-BztA-GlnR*3-Ala-NH2; reading uncertain; also: Lys10 and GlnR14 marked *3
# B4: I-71 (peptide)
# peptide: Ac-[αAllylPro]D[tBuAla][B5(3)]D[Phe(3-COOH)][Nle]AFK[PyrS2(3)][2F3MeF″][Bta][GlnR]A-NH2
# modifications: bridge 10-14; not fully specified (bridges); printed as Ac-PL3-Asp-Npg-B5-Asp-3COOHF-nLeu-Ala-Phe-Lys*3-PyrS2-2F3MeF-BztA-GlnR*3-Ala-NH2; reading uncertain
# B5: I-73 (peptide)
# peptide: XDXXDXTAFKXXXQA
# modifications: not fully specified; Ac-PL3-Asp-Npg-B5-Asp-3COOHF-Thr-Ala-Phe-Lys*3-PyrS2-2F3MeF-BztA-GlnR*3-Ala-NH2
# B6: I-1 (peptide)
# peptide: Ac-[PL3]DL[B5]DDAAFK[PyrS2(4)][3Thi][Bta][GlnR]-NH2
# modifications: staple 1-4; bridge 10-14; not fully specified (residue 10); printed as Ac-PL3-Asp-Leu-B5-Asp-Asp-Ala-Ala-Phe-dLys*3-PyrS2-3Thi-BztA-GlnR*3-NH2; reading uncertain; also: PyrS2 tied into a staple, partner not placed
# B7: I-68 (peptide)
# peptide: Ac-[αAllylPro]D[tBuAla][B5(3)]D[Phe(3-COOH)][Aib]AFK[PyrS2(3)][2F3MeF″][Bta][GlnR]A-NH2
# modifications: bridge 10-14; not fully specified (bridges); printed as Ac-PL3-Asp-Npg-B5-Asp-3COOHF-Aib-Ala-Phe-Lys*3-PyrS2-2F3MeF-BztA-GlnR*3-Ala-NH2; reading uncertain
# B8: I-106 (peptide)
# peptide: Ac-[PL3]D[Cha][B5]D[Phe(3-COOH)]AAFK[PyrS2(4)][2F3MeF][Bta][GlnR]L-NH2
# modifications: staple 1-4; bridge 10-14; not fully specified (residue 10); printed as Ac-PL3-Asp-Cha-B5-Asp-3COOHF-Ala-Ala-Phe-Lys*3-PyrS2-2F3MeF-BztA-GlnR*3-Leu-NH2; reading uncertain; also: PyrS2 tied into a staple, partner not placed
# B9: I-101 (peptide)
# peptide: Ac-[PL3]D[tBuAla][B5]D[Phe(3-COOH)][Cha]AFK[PyrS2(4)][2F3MeF][Bta][GlnR]A-NH2
# modifications: staple 1-4; bridge 10-14; not fully specified (residue 10); printed as Ac-PL3-Asp-Npg-B5-Asp-3COOHF-Cha-Ala-Phe-Lys*3-PyrS2-2F3MeF-BztA-GlnR*3-Ala-NH2; reading uncertain; also: PyrS2 tied into a staple, partner not placed
# B10: I-120 (peptide)
# peptide: Ac-[αAllylPro]D[tBuAla][B5″]D[TfeGA][Aib]AFK[PyrS2″][2F3MeF][Bta][GlnR]A-NH2
# modifications: bridge 10-14; not fully specified (bridges); reading uncertain; also: Lys*3 and GlnR*3 marked *3
# B11: I-72 (peptide)
# peptide: Ac-[αAllylPro]D[tBuAla][B5(3)]D[Phe(3-COOH)]TAFK[PyrS2(3)][3Thi][Bta][GlnR]A-NH2
# modifications: bridge 10-14; not fully specified (bridges); printed as Ac-PL3-Asp-Npg-B5-Asp-3COOHF-Thr-Ala-Phe-Lys*3-PyrS2-3Thi-BztA-GlnR*3-Ala-NH2; reading uncertain
# Molecular target: beta-catenin (human)
# Experiment: fluorescence polarization
# Conditions: not given
# Chain of beta-catenin (human) (B6V8E6 146-665 limits assumed): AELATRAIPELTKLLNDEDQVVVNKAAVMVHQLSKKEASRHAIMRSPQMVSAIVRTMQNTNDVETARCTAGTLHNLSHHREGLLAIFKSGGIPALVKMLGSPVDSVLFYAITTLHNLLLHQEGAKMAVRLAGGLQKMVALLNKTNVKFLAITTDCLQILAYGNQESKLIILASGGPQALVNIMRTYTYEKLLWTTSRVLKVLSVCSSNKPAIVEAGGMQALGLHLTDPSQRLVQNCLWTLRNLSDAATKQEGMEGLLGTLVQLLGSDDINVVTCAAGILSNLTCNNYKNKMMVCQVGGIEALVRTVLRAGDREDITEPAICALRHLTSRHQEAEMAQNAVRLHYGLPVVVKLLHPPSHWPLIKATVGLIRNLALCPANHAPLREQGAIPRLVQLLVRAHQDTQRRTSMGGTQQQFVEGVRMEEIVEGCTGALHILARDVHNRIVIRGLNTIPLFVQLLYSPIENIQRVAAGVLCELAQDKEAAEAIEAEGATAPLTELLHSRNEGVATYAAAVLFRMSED
row,Molecule,IC50
1,B1,< 50 nM
2,B2,< 50 nM
3,B3,< 50 nM
4,B4,< 50 nM
5,B5,< 50 nM
6,B6,< 50 nM
7,B7,< 50 nM
8,B8,< 50 nM
9,B9,< 50 nM
10,B10,< 50 nM
11,B11,< 50 nM

# Tested on: DLD1 reporter
# Experiment: reporter assay (DLD1 reporter assay)
# Format: cell-based
# Conditions: read-out: DLD1 4% Abs IC50; DLD1 4%
# From the text: Various technologies can be utilized for characterizing and/or assessing provided technologies (e.g., agents (e.g., various peptides), compositions, methods, etc.) in accordance with the present disclosure. As described herein, in some embodiments, a useful technology is or comprises fluorescence polarization. In some embodiments, a useful technology assesses LogP or LogD. In some embodiments, a useful technology is or comprises a CHI LogD assay. In some embodiments, a useful technology assesses solubility. In some embodiments, a useful technology is or comprises NanoBRET. In some embodiments, a useful technology is or comprises a reporter assay (e.g., DLD1 reporter assay). In some embodiments, a useful technology is or comprises alphascreen. Certain useful protocols are described in the Examples. Those skilled in the art appreciate that suitable adjustments may be made to such protocols, e.g., according to specific conditions, agents, purposes, etc.
# Various technologies can be utilized to assess technologies of the present disclosure. For example, in some embodiments, solubility, LogD, interactions with targets, etc. of various agents such as stapled peptides were assessed using technologies described in WO 2022/261257 (e.g., those in its Examples). In some embodiments, solubility, shake flask LogD, and binding to beta-catenin were assessed. In some embodiments, an assay for assessing interactions, e.g., with beta-catenin, was fluorescence polarization as described in WO 2022/261257. In some embodiments, an assay was Nano-BRET target engagement assay that assessed beta-catenin/TCF4 engagement as described in WO 2022/261257. In some embodiments, an assay was a reporter assay as reported in Example 4 of WO 2022/261257. In some embodiments, an assay was a COLO320DM proliferation assay as reported in Example 4 of WO 2022/261257.
row,Molecule,IC50
1,"CC(=O)N1CCC[C@]12CC=CCCCC1(CCCC=CCCCOC(=O)N3CC[C@@]4(C3)NC(=O)[C@H](CCCCNC(=O)CC[C@@H](C(=O)N[C@@H](C)C(N)=O)NC(=O)[C@H](Cc3csc5ccccc35)NC(=O)[C@H](Cc3ccccc3C(F)(F)F)NC4=O)NC(=O)[C@H](Cc3ccccc3)NC(=O)[C@H](C)NC(=O)C(C)(C)NC(=O)[C@H](Cc3cccc(C(=O)O)c3)NC(=O)[C@H](CCC(=O)O)NC1=O)NC(=O)[C@H](CC(C)(C)C)NC(=O)[C@H](CCC(=O)O)NC2=O (relative stereo) [I-291, Ac-PL3-Glu-Npg-B5-Glu-3COOHF-Aib-Ala-Phe-Lys*3-PyrS2-2F3MeF-BztA-GlnR*3-Ala-NH2]",1000 to 5000 nM
2,"CC(=O)N1CCC[C@]12CC=CCCCC1(CCCC=CCCCOC(=O)N3CC[C@@]4(C3)NC(=O)[C@H](CCCCNC(=O)CC[C@@H](C(=O)N[C@@H](CC(C)C)C(=O)N[C@@H](CO)C(N)=O)NC(=O)[C@H](Cc3csc5ccccc35)NC(=O)[C@H](Cc3ccccc3C(F)(F)F)NC4=O)NC(=O)[C@H](Cc3ccccc3)NC(=O)[C@H](C)NC(=O)[C@H](C)NC(=O)[C@H](Cc3cccc(C(=O)O)c3)NC(=O)[C@H](CC(=O)O)NC1=O)NC(=O)[C@H](CC(C)(C)C)NC(=O)[C@H](CC(N)=O)NC2=O (relative stereo) [I-142, Ac-PL3-Asn-Npg-B5-Asp-3COOHF-Ala-Ala-Phe-Lys*3-PyrS2-2F3MeF-BztA-GlnR*3-Leu-Ser-NH2]",> 5000 nM
3,"CC(=O)N1CCC[C@]12CC=CCCCC1(CCCC=CCCCOC(=O)N3CC[C@@]4(C3)NC(=O)[C@H](CCCCNC(=O)CCC[C@@H](C(=O)N[C@@H](C)C(N)=O)NC(=O)[C@H](Cc3csc5ccccc35)NC(=O)[C@H](Cc3ccsc3)NC4=O)NC(=O)[C@H](Cc3ccccc3)NC(=O)[C@H](C)NC(=O)[C@H](C)NC(=O)[C@H](Cc3cccc(C(=O)O)c3)NC(=O)[C@H](CC(=O)O)NC1=O)NC(=O)[C@H](CC(C)(C)C)NC(=O)[C@H](CC(=O)O)NC2=O (relative stereo) [I-183, Ac-PL3-Asp-Npg-B5-Asp-3COOHF-Ala-Ala-Phe-Lys*3-PyrS2-3Thi-BztA-hGlnR*3-Ala-NH2]",1000 to 5000 nM
4,"CC(=O)N1CCC[C@]12CC=CCCCC1(CCCC=CCCCOC(=O)N3CC[C@@]4(C3)NC(=O)[C@H](CCCCNC(=O)CC[C@@H](C(=O)N[C@@H](CC(C)C)C(=O)N[C@@H](CO)C(N)=O)NC(=O)[C@H](Cc3csc5ccccc35)NC(=O)[C@H](Cc3ccccc3C(F)(F)F)NC4=O)NC(=O)[C@H](Cc3ccccc3)NC(=O)[C@H](C)NC(=O)C(C)(C)NC(=O)[C@H](Cc3cccc(C(=O)O)c3)NC(=O)[C@H](CC(=O)O)NC1=O)NC(=O)[C@H](CC(C)(C)C)NC(=O)[C@H](CC(N)=O)NC2=O (relative stereo) [I-144, Ac-PL3-Asn-Npg-B5-Asp-3COOHF-Aib-Ala-Phe-Lys*3-PyrS2-2F3MeF-BztA-GlnR*3-Leu-Ser-NH2]",1000 to 5000 nM
5,"CC(=O)N1CCC[C@]12CC=CCCCC1(CCCC=CCCCOC(=O)N3CC[C@@]4(C3)NC(=O)[C@H](CCCCNC(=O)CC[C@@H](C(=O)N[C@@H](C)C(N)=O)NC(=O)[C@H](Cc3csc5ccccc35)NC(=O)[C@H](Cc3ccccc3C(F)(F)F)NC4=O)NC(=O)[C@H](Cc3ccccc3)NC(=O)[C@H](C)NC(=O)C(C)(C)NC(=O)[C@H](CN(CC(=O)O)CC(F)(F)F)NC(=O)[C@H](CC(=O)O)NC1=O)NC(=O)[C@H](CC(C)(C)C)NC(=O)[C@H](CC(=O)O)NC2=O (single isomer, unassigned) [I-121, Ac-PL3-Asp-Npg-B5-Asp-TfeGA-Aib-Ala-Phe-Lys*3-PyrS2-2F3MeF-BztA-GlnR*3-Ala-NH2]",1000 to 5000 nM

# Molecular target: beta-catenin (human)
# Experiment: cell-based or functional assay
# Conditions: not given
Molecule,NanoBRET Abs IC50 (bin >1.5 uM),NanoBRET Abs IC50
B1,< 3000 nM,
B2,< 3000 nM,
B3,< 3000 nM,
B4,< 3000 nM,
B5,< 3000 nM,
B6,,> 10000 nM
B7,< 3000 nM,
B8,< 3000 nM,
B9,< 3000 nM,
B10,< 3000 nM,
B11,< 3000 nM,
